The target of this test is isolated C-terminal domain (CTD, 213-288) of HIV-1 integrase (HIV-1). The experiment in a line: SEC. A general note: SEC sorts molecules by how far they enter the pores of the column.

Here are results for one substance from PMC3203615.

Usually stoichiometry N stands for a count of units in the complex or per binding partner. With “isolated C-terminal domain (CTD, 213-288) of HIV-1 integrase (domain or fragment)”, the stoichiometry N turned out to be 2.
